Test results published in PMC9569990 (International Journal of Molecular Sciences, 2022).

Assays:
Assay in all cases: SPR; cytokine immobilised on ProteOn GLH sensor chip by amine coupling (9,000-14,000 RU); S100P (wild type or mutant) as analyte, 62 nM-16 µM; 25 °C; 10 mM HEPES, 150 mM NaCl, 1 mM CaCl2, 0.05% TWEEN 20, pH 7.4; heterogeneous ligand model (two ligand populations), one-site model for IL-13; values averaged over analyte concentrations (n = 3-5)
Settings in all cases: both partners purified
[1] = target: T1, Interleukin-26 (human, UniProt Q9NPH9 22-171)
T1 construct: Interleukin-26, human, UniProt Q9NPH9; see the manufacturer's catalogue number; also called IL-26; source: bought: R&D Systems (source E. coli)
T1 sequence (looked up): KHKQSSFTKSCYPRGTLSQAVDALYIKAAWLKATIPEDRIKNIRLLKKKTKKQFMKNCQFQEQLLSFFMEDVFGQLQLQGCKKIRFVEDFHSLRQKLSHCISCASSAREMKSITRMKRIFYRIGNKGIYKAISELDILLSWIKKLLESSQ

[2] = target: T2, Interleukin-31 (human, UniProt Q6EBC2 24-164)
T2 construct: Interleukin-31, human, UniProt Q6EBC2; see the manufacturer's catalogue number; also called IL-31; source: bought: PeproTech (source E. coli)
T2 sequence (looked up): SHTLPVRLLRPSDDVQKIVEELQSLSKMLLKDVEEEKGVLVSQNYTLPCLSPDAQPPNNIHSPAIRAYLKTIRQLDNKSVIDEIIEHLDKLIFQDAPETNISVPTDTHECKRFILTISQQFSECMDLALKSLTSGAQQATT

[3] = target: T3, Interleukin-24 (human, UniProt Q13007 52-206)
T3 construct: Interleukin-24, human, UniProt Q13007; see the manufacturer's catalogue number; also called IL-24; source: bought: PeproTech (source CHO)
T3 sequence (looked up): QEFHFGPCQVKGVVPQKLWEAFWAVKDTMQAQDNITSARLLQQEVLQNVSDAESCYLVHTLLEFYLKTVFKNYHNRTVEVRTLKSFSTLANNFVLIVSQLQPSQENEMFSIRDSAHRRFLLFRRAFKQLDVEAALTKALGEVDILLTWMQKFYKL

[4] = target: T4, Interleukin-10 (human, UniProt P22301 19-178)
T4 construct: Interleukin-10, human, UniProt P22301; see the manufacturer's catalogue number; also called IL-10; source: bought: PeproTech (source E. coli)
T4 sequence (P22301 19-178): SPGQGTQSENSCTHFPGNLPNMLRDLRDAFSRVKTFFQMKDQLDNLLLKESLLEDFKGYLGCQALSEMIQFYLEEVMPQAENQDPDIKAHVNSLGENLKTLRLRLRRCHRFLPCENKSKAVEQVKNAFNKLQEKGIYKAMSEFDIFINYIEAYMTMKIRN

[5] = target: T5, Interleukin-35 (human, UniProt P29459 23-219; Q14213 21-229)
T5 construct: the chain used for the SCOP family assignment; also called IL-35; source: bought: PeproTech (source HEK293)
T5 sequence (looked up) 1: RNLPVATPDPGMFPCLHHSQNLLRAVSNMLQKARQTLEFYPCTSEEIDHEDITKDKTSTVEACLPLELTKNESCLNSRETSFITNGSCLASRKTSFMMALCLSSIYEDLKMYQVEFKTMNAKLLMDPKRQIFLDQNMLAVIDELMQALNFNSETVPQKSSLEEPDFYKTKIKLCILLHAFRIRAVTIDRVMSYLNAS
T5 sequence (looked up) 2: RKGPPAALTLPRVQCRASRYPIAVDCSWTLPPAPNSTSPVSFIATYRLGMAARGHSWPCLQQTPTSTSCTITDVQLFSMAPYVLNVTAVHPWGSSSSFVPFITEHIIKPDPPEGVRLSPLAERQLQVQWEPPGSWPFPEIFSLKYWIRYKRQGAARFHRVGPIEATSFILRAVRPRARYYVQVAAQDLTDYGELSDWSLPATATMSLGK

- Kd1 (heterogeneous ligand model, population 1) [1]: 9.02 nM
- Kd2 (heterogeneous ligand model, population 2) [1]: 1.32 µM
- kd1 (heterogeneous ligand model, population 1) [1]: 0.000144 s⁻¹
- kd2 (heterogeneous ligand model, population 2) [1]: 0.00509 s⁻¹
- Kd1 (heterogeneous ligand model, population 1) [2]: 25.2 nM
- Kd2 (heterogeneous ligand model, population 2) [2]: 202 nM
- kd1 (heterogeneous ligand model, population 1) [2]: 0.00023 s⁻¹
- kd2 (heterogeneous ligand model, population 2) [2]: 0.0583 s⁻¹
- Kd1 (heterogeneous ligand model, population 1) [3]: 158 nM
- Kd2 (heterogeneous ligand model, population 2) [3]: 918 nM
- kd1 (heterogeneous ligand model, population 1) [3]: 0.000483 s⁻¹
- kd2 (heterogeneous ligand model, population 2) [3]: 0.00794 s⁻¹
- Kd1 (heterogeneous ligand model, population 1) [4]: 2.55 µM
- Kd2 (heterogeneous ligand model, population 2) [4]: 2.66 µM
- kd1 (heterogeneous ligand model, population 1) [4]: 0.0106 s⁻¹
- kd2 (heterogeneous ligand model, population 2) [4]: 0.000519 s⁻¹
- Kd1 (heterogeneous ligand model, population 1) [5]: 96.2 nM
- Kd2 (heterogeneous ligand model, population 2) [5]: 255 nM
- kd1 (heterogeneous ligand model, population 1) [5]: 0.000531 s⁻¹
- kd2 (heterogeneous ligand model, population 2) [5]: 0.012 s⁻¹
B1: Human S100P protein (recombinant, Ca^2+-loaded) (natural protein)
chain: MTELETAMGMIIDVFSRYSGSEGSTQTLTKGELKVLMEKELPGFLQSGKDKDAVDKLLKDLDANGDAQVDFSEFIVFVAAITSACHKYFEKAGLK
notes: S100P protein, human, recombinant; probably the whole 95-residue protein (surmise); also called wild-type S100P; WT S100P; source: E. coli, prepared as previously described [28]
